Biological target: DQ1-MBP85-99 complex, monobiotinylated (SPR)
Test: SPR

Substance | Kd [µM]
Hy.1B11 TCR double mutant CDR1α N31A and CDR2α S52A | 13.8
Hy.1B11 TCR mutant CDR2β Q48A | 108
Hy.1B11 TCR mutant CDR3α E98A | > 250
Hy.1B11 TCR mutant CDR3α F95A | > 250
Hy.1B11 TCR, soluble monomeric wild type | 14.3

Source: PMC3023130
